Measurements: the supplement of paper PMC5998384

Columns and labels:
HeLa Kyoto [1] = test: solubility in G1/S (NP-40 vs SDS abundance) (log2 ratio); higher = more soluble; settings: cell cycle stage: G1/S
HeLa Kyoto [2] = test: melting temperature (median over replicates), in situ; higher = more thermally stable
HeLa Kyoto [3] = test: solubility change mitosis vs G1/S (difference of NP-40 vs SDS log2 ratios) (log2 ratio difference); higher = more soluble in mitosis
HeLa Kyoto [4] = test: thermal stability score vs G1/S (z-score of summed log2 fold changes over temperatures); higher = more thermally stable than in G1/S
[5] = cell cycle stage: early G1 (4.5 h after nocodazole release)
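Wherever melting temperature (median over replicates), in situ is given: HeLa Kyoto cells synchronized by double thymidine or nocodazole block, proteins quantified by TMT10plex mass spectrometry, three independent biological replicates.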
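Wherever solubility change mitosis vs G1/S (difference of NP-40 vs SDS log2 ratios) is given: synchronized HeLa Kyoto cells (double thymidine block for G1/S, nocodazole release for mitosis), protein amounts in NP-40 versus SDS lysates quantified by mass spectrometry, three biological replicates.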
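Wherever solubility in G1/S (NP-40 vs SDS abundance) is given: HeLa Kyoto cells arrested at G1/S by double thymidine block, proteins quantified by TMT10plex mass spectrometry in mild NP-40 versus SDS extracts, three biological replicates.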
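Wherever thermal stability score vs G1/S (z-score of summed log2 fold changes over temperatures) is given: synchronized HeLa Kyoto cells, proteins quantified by TMT10plex mass spectrometry, three biological replicates, mitosis taken 0.5 h after nocodazole release, G1/S directly after double thymidine block.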

## MAGAGGGNDIQWCFSQVKGAVDDDVAEADIISTVEFNHSGELLATGDKGGRVVIFQQEQENKIQSHSRGEYNVYSTFQSHEPEFDYLKSLEIEEKINKIRWLPQKNAAQFLLSTNDKTIKLWKISERDKRPEGYNLKEEDGRYRDPTTVTTLRVPVFRPMDLMVEASPRRIFANAHTYHINSISINSDYETYLSADDLRINLWHLEITDRSFNIVDIKPANMEELTEVITAAEFHPNSCNTFVYSSSKGTIRLCDMRASALCDRHSKLFEEPEDPSNRSFFSEIISSISDVKFSHSGRYMMTRDYLSVKIWDLNMENRPVETYQVHEYLRSKLCSLYENDCIFDKFECCWNGSDSVVMTGSYNNFFRMFDRNTKRDITLEASRENNKPRTVLKPRKVCASGKRKKDEISVDSLDFNKKILHTAWHPKENIIAVATTNNLYIFQDKVN [PPP2R2A]
HeLa Kyoto [1]
  solubility in G1/S (log2): -0.0929
HeLa Kyoto [2]; cell cycle stage: G1/S
  melting temperature: 54.7 °C
HeLa Kyoto [2]; cell cycle stage: mitosis
  melting temperature: 54.2 °C
HeLa Kyoto [3]
  solubility change mitosis (log2): -0.194
HeLa Kyoto [4]; [5]
  thermal stability score: -0.543
HeLa Kyoto [4]; cell cycle stage: mitosis
  thermal stability score: -3.42

## MAGAIASRMSFSSLKRKQPKTFTVRIVTMDAEMEFNCEMKWKGKDLFDLVCRTLGLRETWFFGLQYTIKDTVAWLKMDKKVLDHDVSKEEPVTFHFLAKFYPENAEEELVQEITQHLFFLQVKKQILDEKIYCPPEASVLLASYAVQAKYGDYDPSVHKRGFLAQEELLPKRVINLYQMTPEMWEERITAWYAEHRGRARDEAEMEYLKIAQDLEMYGVNYFAIRNKKGTELLLGVDALGLHIYDPENRLTPKISFPWNEIRNISYSDKEFTIKPLDKKIDVFKFNSSKLRVNKLILQLCIGNHDLFMRRRKADSLEVQQMKAQAREEKARKQMERQRLAREKQMREEAERTRDELERRLLQMKEEATMANEALMRSEETADLLAEKAQITEEEAKLLAQKAAEAEQEMQRIKATAIRTEEEKRLMEQKVLEAEVLALKMAEESERRAKEADQLKQDLQEAREAERRAKQKLLEIATKPTYPPMNPIPAPLPPDIPSFNLIGDSLSFDFKDTDMKRLSMEIEKEKVEYMEKSKHLQEQLNELKTEIEALKLKERETALDILHNENSDRGGSSKHNTIKKLTLQSAKSRVAFFEEL [NF2]
HeLa Kyoto [1]
  solubility in G1/S (log2): -0.161
HeLa Kyoto [2]; cell cycle stage: G1/S
  melting temperature: 51.6 °C
HeLa Kyoto [2]; cell cycle stage: mitosis
  melting temperature: 50.7 °C
HeLa Kyoto [3]
  solubility change mitosis (log2): -0.0393
HeLa Kyoto [4]; [5]
  thermal stability score: 0.0456
HeLa Kyoto [4]; cell cycle stage: mitosis
  thermal stability score: 0.294

## MAGARAAAAAASAGSSASSGNQPPQELGLGELLEEFSRTQYRAKDGSGTGGSKVERIEKRCLELFGRDYCFSVIPNTNGDICGHYPRHIVFLEYESSEKEKDTFESTVQVSKLQDLIHRSKMARCRGRFVCPVILFKGKHICRSATLAGWGELYGRSGYNYFFSGGADDAWADVEDVTEEDCALRSGDTHLFDKVRGYDIKLLRYLSVKYICDLMVENKKVKFGMNVTSSEKVDKAQRYADFTLLSIPYPGCEFFKEYKDRDYMAEGLIFNWKQDYVDAPLSIPDFLTHSLNIDWSQYQCWDLVQQTQNYLKLLLSLVNSDDDSGLLVHCISGWDRTPLFISLLRLSLWADGLIHTSLKPTEILYLTVAYDWFLFGHMLVDRLSKGEEIFFFCFNFLKHITSEEFSALKTQRRKSLPARDGGFTLEDICMLRRKDRGSTTSLGSDFSLVMESSPGATGSFTYEAVELVPAGAPTQAAWRKSHSSSPQSVLWNRPQPSEDRLPSQQGLAEARSSSSSSSNHSDNFFRMGSSPLEVPKPRSVDHPLPGSSLSTDYGSWQMVTGCGSIQERAVLHTDSSLPFSFPDELPNSCLLAALSDRETRLQEVRSAFLAAYSSTVGLRAVAPSPSGAIGGLLEQFARGVGLRSISSNAL [MTMR14]
HeLa Kyoto [1]
  solubility in G1/S (log2): -0.145
HeLa Kyoto [2]; cell cycle stage: G1/S
  melting temperature: 52.8 °C
HeLa Kyoto [3]
  solubility change mitosis (log2): -0.0972
HeLa Kyoto [4]; [5]
  thermal stability score: -0.497
HeLa Kyoto [4]; cell cycle stage: mitosis
  thermal stability score: -0.428

## MAGASVKVAVRVRPFNARETSQDAKCVVSMQGNTTSIINPKQSKDAPKSFTFDYSYWSHTSTEDPQFASQQQVYRDIGEEMLLHAFEGYNVCIFAYGQTGAGKSYTMMGRQEPGQQGIVPQLCEDLFSRVSENQSAQLSYSVEVSYMEIYCERVRDLLNPKSRGSLRVREHPILGPYVQDLSKLAVTSYADIADLMDCGNKARTVAATNMNETSSRSHAVFTIVFTQRCHDQLTGLDSEKVSKISLVDLAGSERADSSGARGMRLKEGANINKSLTTLGKVISALADMQSKKRKSDFIPYRDSVLTWLLKENLGGNSRTAMIAALSPADINYEETLSTLRYADRTKQIRCNAIINEDPNARLIRELQEEVARLRELLMAQGLSASALEGLKTEEGSVRGALPAVSSPPAPVSPSSPTTHNGELEPSFSPNTESQIGPEEAMERLQETEKIIAELNETWEEKLRKTEALRMEREALLAEMGVAVREDGGTVGVFSPKKTPHLVNLNEDPLMSECLLYHIKDGVTRVGQVDMDIKLTGQFIREQHCLFRSIPQPDGEVVVTLEPCEGAETYVNGKLVTEPLVLKSGNRIVMGKNHVFRFNHPEQARLERERGVPPPPGPPSEPVDWNFAQKELLEQQGIDIKLEMEKRLQDLENQYRKEKEEADLLLEQQRLYADSDSGDDSDKRSCEESWRLISSLREQLPPTTVQTIVKRCGLPSSGKRRAPRRVYQIPQRRRLQGKDPRWATMADLKMQAVKEICYEVALADFRHGRAEIEALAALKMRELCRTYGKPDGPGDAWRAVARDVWDTVGEEEGGGAGSGGGSEEGARGAEVEDLRAHIDKLTGILQEVKLQNSSKDRELQALRDRMLRMERVIPLAQDHEDENEEGGEVPWAPPEGSEAAEEAAPSDRMPSARPPSPPLSSWERVSRLMEEDPAFRRGRLRWLKQEQLRLQGLQGSGGRGGGLRRPPARFVPPHDCKLRFPFKSNPQHRESWPGMGSGEAPTPLQPPEEVTPHPATPARRPPSPRRSHHPRRNSLDGGGRSRGAGSAQPEPQHFQPKKHNSYPQPPQPYPAQRPPGPRYPPYTTPPRMRRQRSAPDLKESGAAV [KIF1C]
HeLa Kyoto [1]
  solubility in G1/S (log2): -0.0137
HeLa Kyoto [2]; cell cycle stage: G1/S
  melting temperature: 48.5 °C
HeLa Kyoto [2]; cell cycle stage: mitosis
  melting temperature: 50.2 °C
HeLa Kyoto [3]
  solubility change mitosis (log2): -0.0384
HeLa Kyoto [4]; [5]
  thermal stability score: 0.369
HeLa Kyoto [4]; cell cycle stage: mitosis
  thermal stability score: 0.754

## MAGDLSAGFFMEELNTYRQKQGVVLKYQELPNSGPPHDRRFTFQVIIDGREFPEGEGRSKKEAKNAAAKLAVEILNKEKKAVSPLLLTTTNSSEGLSMGNYIGLINRIAQKKRLTVNYEQCASGVHGPEGFHYKCKMGQKEYSIGTGSTKQEAKQLAAKLAYLQILSEETSVKSDYLSSGSFATTCESQSNSLVTSTLASESSSEGDFSADTSEINSNSDSLNSSSLLMNGLRNNQRKAKRSLAPRFDLPDMKETKYTVDKRFGMDFKEIELIGSGGFGQVFKAKHRIDGKTYVIKRVKYNNEKAEREVKALAKLDHVNIVHYNGCWDGFDYDPETSDDSLESSDYDPENSKNSSRSKTKCLFIQMEFCDKGTLEQWIEKRRGEKLDKVLALELFEQITKGVDYIHSKKLIHRDLKPSNIFLVDTKQVKIGDFGLVTSLKNDGKRTRSKGTLRYMSPEQISSQDYGKEVDLYALGLILAELLHVCDTAFETSKFFTDLRDGIISDIFDKKEKTLLQKLLSKKPEDRPNTSEILRTLTVWKKSPEKNERHTC [EIF2AK2]
HeLa Kyoto [1]
  solubility in G1/S (log2): -0.283
HeLa Kyoto [2]; cell cycle stage: G1/S
  melting temperature: 47.1 °C
HeLa Kyoto [2]; cell cycle stage: mitosis
  melting temperature: 48 °C
HeLa Kyoto [3]
  solubility change mitosis (log2): -0.0511
HeLa Kyoto [4]; [5]
  thermal stability score: 1.01
HeLa Kyoto [4]; cell cycle stage: mitosis
  thermal stability score: 3.12

## MAGFWVGTAPLVAAGRRGRWPPQQLMLSAALRTLKHVLYYSRQCLMVSRNLGSVGYDPNEKTFDKILVANRGEIACRVIRTCKKMGIKTVAIHSDVDASSVHVKMADEAVCVGPAPTSKSYLNMDAIMEAIKKTRAQAVHPGYGFLSENKEFARCLAAEDVVFIGPDTHAIQAMGDKIESKLLAKKAEVNTIPGFDGVVKDAEEAVRIAREIGYPVMIKASAGGGGKGMRIAWDDEETRDGFRLSSQEAASSFGDDRLLIEKFIDNPRHIEIQVLGDKHGNALWLNERECSIQRRNQKVVEEAPSIFLDAETRRAMGEQAVALARAVKYSSAGTVEFLVDSKKNFYFLEMNTRLQVEHPVTECITGLDLVQEMIRVAKGYPLRHKQADIRINGWAVECRVYAEDPYKSFGLPSIGRLSQYQEPLHLPGVRVDSGIQPGSDISIYYDPMISKLITYGSDRTEALKRMADALDNYVIRGVTHNIALLREVIINSRFVKGDISTKFLSDVYPDGFKGHMLTKSEKNQLLAIASSLFVAFQLRAQHFQENSRMPVIKPDIANWELSVKLHDKVHTVVASNNGSVFSVEVDGSKLNVTSTWNLASPLLSVSVDGTQRTVQCLSREAGGNMSIQFLGTVYKVNILTRLAAELNKFMLEKVTEDTSSVLRSPMPGVVVAVSVKPGDAVAEGQEICVIEAMKMQNSMTAGKTGTVKSVHCQAGDTVGEGDLLVELE [PCCA]
HeLa Kyoto [1]
  solubility in G1/S (log2): 0.0361
HeLa Kyoto [2]; cell cycle stage: G1/S
  melting temperature: 53.7 °C
HeLa Kyoto [2]; cell cycle stage: mitosis
  melting temperature: 53.1 °C
HeLa Kyoto [3]
  solubility change mitosis (log2): -0.122
HeLa Kyoto [4]; [5]
  thermal stability score: -0.863
HeLa Kyoto [4]; cell cycle stage: mitosis
  thermal stability score: -1.1

## MAGGGAGDPGLGAAAAPAPETREHLFKVLVIGELGVGKTSIIKRYVHQLFSQHYRATIGVDFALKVLNWDSRTLVRLQLWDIAGQERFGNMTRVYYKEAVGAFVVFDISRSSTFEAVLKWKSDLDSKVHLPNGSPIPAVLLANKCDQNKDSSQSPSQVDQFCKEHGFAGWFETSAKDNINIEEAARFLVEKILVNHQSFPNEENDVDKIKLDQETLRAENKSQCC [RAB32]
HeLa Kyoto [1]
  solubility in G1/S (log2): -0.00216
HeLa Kyoto [2]; cell cycle stage: G1/S
  melting temperature: 51.8 °C
HeLa Kyoto [2]; cell cycle stage: mitosis
  melting temperature: 53.4 °C
HeLa Kyoto [3]
  solubility change mitosis (log2): -0.0818
HeLa Kyoto [4]; [5]
  thermal stability score: 4.46
HeLa Kyoto [4]; cell cycle stage: mitosis
  thermal stability score: 2.79

## MAGIAAKLAKDREAAEGLGSHDRAIKYLNQDYEALRNECLEAGTLFQDPSFPAIPSALGFKELGPYSSKTRGIEWKRPTEICADPQFIIGGATRTDICQGALGDCWLLAAIASLTLNEEILARVVPLNQSFQENYAGIFHFQFWQYGEWVEVVVDDRLPTKDGELLFVHSAEGSEFWSALLEKAYAKINGCYEALSGGATTEGFEDFTGGIAEWYELKKPPPNLFKIIQKALQKGSLLGCSIDITSAADSEAITFQKLVKGHAYSVTGAEEVESNGSLQKLIRIRNPWGEVEWTGRWNDNCPSWNTIDPEERERLTRRHEDGEFWMSFSDFLRHYSRLEICNLTPDTLTSDTYKKWKLTKMDGNWRRGSTAGGCRNYPNTFWMNPQYLIKLEEEDEDEEDGESGCTFLVGLIQKHRRRQRKMGEDMHTIGFGIYEVPEELSGQTNIHLSKNFFLTNRARERSDTFINLREVLNRFKLPPGEYILVPSTFEPNKDGDFCIRVFSEKKADYQAVDDEIEANLEEFDISEDDIDDGFRRLFAQLAGEDAEISAFELQTILRRVLAKRQDIKSDGFSIETCKIMVDMLDSDGSGKLGLKEFYILWTKIQKYQKIYREIDVDRSGTMNSYEMRKALEEAGFKMPCQLHQVIVARFADDQLIIDFDNFVRCLVRLETLFKIFKQLDPENTGTIELDLISWLCFSVL [CAPN2]
HeLa Kyoto [1]
  solubility in G1/S (log2): -0.0212
HeLa Kyoto [2]; cell cycle stage: G1/S
  melting temperature: 55.4 °C
HeLa Kyoto [2]; cell cycle stage: mitosis
  melting temperature: 54.9 °C
HeLa Kyoto [3]
  solubility change mitosis (log2): -0.183
HeLa Kyoto [4]; [5]
  thermal stability score: -0.784
HeLa Kyoto [4]; cell cycle stage: mitosis
  thermal stability score: -1.57
